Results on one protein are retold here after US20120100582A1 (DSM IP ASSETS B V, published 2012).

This data set concerns the molecule itself. In words: method not named, self-association.

B1: APLE L43D variant (enzyme)
chain: GQPASPPVVDTAQGRVLGKYVSLEGLAQPVAVFLGVPFAKPPDGSLRFAPPQPAEPWSFVKNTTSYPPMCCQEPIGGQMLSDLFTNRKERLIPEFSEDCLYLNIYTPADLTKRGRLPVMVWIHGGGLVVGGASTYDGLALAAHENVVVVAIQYRLGIWGFFSTGDEHSRGNWGHLDQVAALHWVQENIANFGGDPGSVTIFGESAGGESVSVLVLSPLAKNLFHRAISESGVAFTAGLVRKDMKAAAKQIAVLAGCKTTTSAVFVHCLRQKSEDELLDLTLKMKFFALDLHGDPRESHPFLTTVVDGVLLPKMPEEILAEKDFNTVPYIVGINKQEFGWLLPTMMGFPLSEGKLDQKTATSLLWKSYPIANIPEELTPVATDKYLGGTDDPVKKKDLFLDLMGDVVFGVPSVTVARQHRDAGAPTYMYEFQYRPSFSSDKKPKTVIGDHGDEIFSVFGFPLLKGDAPEEEVSLSKTVMKFWANFARSGNPNGEGLPHWPMYDQEEGYLQIGVNTQAAKRLKGEEVAFWNDLLSKEAAKKPPKIKHAEL
With B1, the binding result is “no binding”.
